According to US20240166692A1:

Key:
[1] = biological target: C3b (component obtained after hydrolysis of complement component 3, C3) (UniProt P01024); assay: BLI (Octet RED96), GFP tagged Nanofitin captured on anti-GFP Nanofitin biosensor, C3b in solution, 1:1 fit
[2] = biological target: C3b (component obtained after hydrolysis of complement component 3, C3) (UniProt P01024); assay: ELISA screen of optimized Nf1 variants
[3] = biological target: C3b (component obtained after hydrolysis of complement component 3, C3) (UniProt P01024); assay: biolayer interferometry; B10 recombinant from E. coli; untagged B10, recombinant from E. coli
[4] = biological target: C3b (component obtained after hydrolysis of complement component 3, C3) (UniProt P01024); assay: biolayer interferometry; B10 by full chemical synthesis
[5] = biological target: C3b (component obtained after hydrolysis of complement component 3, C3) (UniProt P01024); assay: biolayer interferometry

B1: B10 (SEQ ID NO: 25), GFP tagged anti-C3 Nanofitin (designed binder, not shown: large carriers)
chain: MVKVKFDATGEEKEVDTSKISAVYRTGKDVLFSYDDNGKIGWGYVSEKDAPKELLDLLARAERE
[1]
  Kd: 7.31 nM
  koff: 0.000433 s⁻¹
  kon: 59200 M⁻¹ s⁻¹
[2]
  OD 450 nm: > 4 OD 450 nm

B2: H03 (SEQ ID NO: 26), GFP tagged anti-C3 Nanofitin (designed binder, not shown: large carriers)
chain: MVKVKFAATGEEKEVDTSKIANVYRVGKDVLFSYDDNGKIGWGYVSEKDAPKELLDLLARAERE
[1]
  Kd: 2.89 nM
  koff: 0.000188 s⁻¹
  kon: 65200 M⁻¹ s⁻¹
[2]
  OD 450 nm: > 4 OD 450 nm

B3: B10 Nanofitin without N- or C-terminal tag (designed binder)
chain: MVKVKFDATGEEKEVDTSKISAVYRTGKDVLFSYDDNGKIGWGYVSEKDAPKELLDLLARAERE
[3]
  Kd: 18.5 nM
[4]
  Kd: 18 nM

B4: B10 Nanofitin with N-terminal peptide (10-mers) tag (designed binder, not shown: small tags and cut ends)
chain: MVKVKFDATGEEKEVDTSKISAVYRTGKDVLFSYDDNGKIGWGYVSEKDAPKELLDLLARAERE
[5]
  Kd: 8.2 nM

B5: B10 Nanofitin with N-terminal peptide (10-mers) tag and C-terminal 30 kDa protein (designed binder, not shown: large carriers; small tags and cut ends)
chain: MVKVKFDATGEEKEVDTSKISAVYRTGKDVLFSYDDNGKIGWGYVSEKDAPKELLDLLARAERE
[5]
  Kd: 7.3 nM

B6: B10 Nanofitin with N-terminal peptide (10-mers) tag and C-terminal peptide (15-mers) tag (designed binder, not shown: small tags and cut ends)
chain: MVKVKFDATGEEKEVDTSKISAVYRTGKDVLFSYDDNGKIGWGYVSEKDAPKELLDLLARAERE
[5]
  Kd: 2.5 nM

B7: B10 Nanofitin with N-terminal peptide (10-mers) tag and C-terminal Nanofitin (designed binder, not shown: small tags and cut ends)
chain: MVKVKFDATGEEKEVDTSKISAVYRTGKDVLFSYDDNGKIGWGYVSEKDAPKELLDLLARAERE
[5]
  Kd: 11.5 nM

B8: B10 Nanofitin with N-terminal 48 kDa protein (designed binder, not shown: small tags and cut ends)
chain: MVKVKFDATGEEKEVDTSKISAVYRTGKDVLFSYDDNGKIGWGYVSEKDAPKELLDLLARAERE
[5]
  Kd: 6.7 nM
